Data as given in patent CN113480644A (UNIV NANKAI, dated 2021).

B1: PR301445 (antibody, V domains shown)
VH: QVQLVQSGAEVKKPGASVKISCKTSGYTFTEYTMYWVRQAPGQRLEWMGGINPNNGDTSYNQKFKGRATLTVDKSATTAYMELSSLRSEDTAVYYCARDGYPYYFAMDYWGQGTTVTVSS
VL: DIQMTQSPSSLSASVGDRVTITCKASQNVDTNVAWYQQKPGKAPKGLIYSASHRYSGVPSRFSGSGSGTDFTLTISSVQPEDLATYFCQQYNTYPWTFGQGTKVEIK
B2: PR301447 (antibody, V domains shown)
VH: QVQLVQSGAEVKKPGASVKISCKTSGYTFTEYTMYWVRQAPGQRLEWMGGINPNQGDTSYNQKFKGRATLTVDKSATTAYMELSSLRSEDTAVYYCAREGYPYYFAMDYWGQGTTVTVSS
VL: DIQMTQSPSSLSASVGDRVTITCKASQNVDTNVAWYQQKPGKAPKGLIYSASSRYSGVPSRFSGSGSGTDFTLTISSVQPEDLATYFCQQYNTYPWTFGQGTKVEIK
B3: PR301568 (antibody, V domains shown)
VH: QVQLVQSGAEVKKPGASVKISCKTSGYTFTEYTMYWVRQAPGQRLEWMGGINPNQGDTSYNQKFKGRATLTVDKSATTAYMELSSLRSEDTAVYYCAREGYPYYFAMDYWGQGTTVTVSS
VL: DIQMTQSPSSLSASVGDRVTITCKASQNVDTNVAWYQQKPGKAPKGLIYSASHRYSGVPSRFSGSGSGTDFTLTISSVQPEDLATYFCQQYNTYPWTFGQGTKVEIK
B4: PR301561 (antibody, V domains shown)
VH: QVQLVQSGAEVKKPGASVKVSCKTSGYTFTEYTMYWVRQAPGQRLEWMGGINPNNGDTSYNQKFKGRVTITVDKSATTAYMELSSLRSEDTAVYYCARDGYPYYFAMDYWGQGTTVTVSS
VL: DIQMTQSPSSLSASVGDRVTITCKASQNVDTNVAWYQQKPGKAPKGLIYSASHRYSGVPSRFSGSGSGTDFTLTISSVQPEDLATYFCQQYNTYPWTFGQGTKVEIK
B5: PR301567 (antibody, V domains shown)
VH: QVQLVQSGAEVKKPGASVKISCKTSGYTFTEYTMYWVRQAPGQRLEWMGGINPNQGDTSYNQKFKGRATLTVDKSATTAYMELSSLRSEDTAVYYCAREGYPYYFAMDYWGQGTTVTVSS
VL: DIQMTQSPSSLSASVGDRVTITCKASQNVDTNVAWYQQKPGKAPKGLIYSASHRYSGVPSRFSGSGSGTDFTLTISSLQPEDLATYFCQQYNTYPWTFGQGTKVEIK
B6: PR301562 (antibody, V domains shown)
VH: QVQLVQSGAEVKKPGASVKVSCKTSGYTFTEYTMYWVRQAPGQRLEWMGGINPNNGDTSYNQKFKGRVTITVDKSATTAYMELSSLRSEDTAVYYCARDGYPYYFAMDYWGQGTTVTVSS
VL: DIQMTQSPSSLSASVGDRVTITCKASQNVDTNVAWYQQKPGKAPKGLIYSASSRYSGVPSRFSGSGSGTDFTLTISSVQPEDLATYFCQQYNTYPWTFGQGTKVEIK
B7: PR301566 (antibody, V domains shown)
VH: QVQLVQSGAEVKKPGASVKISCKTSGYTFTEYTMYWVRQAPGQRLEWMGGINPNQGDTSYNQKFKGRATLTVDKSATTAYMELSSLRSEDTAVYYCARDGYPYYFAMDYWGQGTTVTVSS
VL: DIQMTQSPSSLSASVGDRVTITCKASQNVDTNVAWYQQKPGKAPKGLIYSASHRYSGVPSRFSGSGSGTDFTLTISSVQPEDLATYFCQQYNTYPWTFGQGTKVEIK
B8: PR301565 (antibody, V domains shown)
VH: QVQLVQSGAEVKKPGASVKISCKTSGYTFTEYTMYWVRQAPGQRLEWMGGINPNQGDTSYNQKFKGRATLTVDKSATTAYMELSSLRSEDTAVYYCARDGYPYYFAMDYWGQGTTVTVSS
VL: DIQMTQSPSSLSASVGDRVTITCKASQNVDTNVAWYQQKPGKAPKGLIYSASHRYSGVPSRFSGSGSGTDFTLTISSLQPEDLATYFCQQYNTYPWTFGQGTKVEIK
B9: PR301563 (antibody, V domains shown)
VH: QVQLVQSGAEVKKPGASVKISCKTSGYTFTEYTMYWVRQAPGQRLEWMGGINPNNGDTSYNQKFKGRATLTVDKSATTAYMELSSLRSEDTAVYYCARDGYPYYFAMDYWGQGTTVTVSS
VL: DIQMTQSPSSLSASVGDRVTITCKASQNVDTNVAWYQQKPGKAPKGLIYSASHRYSGVPSRFSGSGSGTDFTLTISSLQPEDLATYFCQQYNTYPWTFGQGTKVEIK
B10: PR301564 (antibody, V domains shown)
VH: QVQLVQSGAEVKKPGASVKISCKTSGYTFTEYTMYWVRQAPGQRLEWMGGINPNNGDTSYNQKFKGRATLTVDKSATTAYMELSSLRSEDTAVYYCARDGYPYYFAMDYWGQGTTVTVSS
VL: DIQMTQSPSSLSASVGDRVTITCKASQNVDTNVAWYQQKPGKAPKGLIYSASSRYSGVPSRFSGSGSGTDFTLTISSVQPEDLATYFCQQYNTYPWTFGQGTKVEIK
B11: PR301444 (antibody, V domains shown)
VH: QVQLVQSGAEVKKPGASVKVSCKTSGYTFTEYTMYWVRQAPGQRLEWMGGINPNNGDTSYNQKFKGRVTITVDKSATTAYMELSSLRSEDTAVYYCARDGYPYYFAMDYWGQGTTVTVSS
VL: DIQMTQSPSSLSASVGDRVTITCKASQNVDTNVAWYQQKPGKAPKGLIYSASHRYSGVPSRFSGSGSGTDFTLTISSLQPEDLATYFCQQYNTYPWTFGQGTKVEIK
B12: PR301558 (antibody, V domains shown)
VH: QVQLVQSGAEVKKPGASVKLSCKASGYSFTSYWVNWVRQAPGQGLEWIGMIHPSDSETRLNQKFKDRVTITVDKSTSTAYMELSSLRSEDTAVYYCARADGYEWYFDVWGRGTLVTVSS
VL: DIVLTQSPASLAVSPGQRATITCRASESVDSYGNSFMHWYQQKPGQPPKLLIYRASNLESGIPARFSGSGSRTDFTLTINPVEANDVANYYCQQSNEDPWTFGQGTKVEIK
B13: PR301441 (antibody, V domains shown)
VH: QVQLVQSGAEVKKPGASVKVSCKASGYSFTSYWVNWVRQAPGQGLEWMGMIHPSDSETRLNQKFKDRVTMTVDKSTSTAYMELSSLRSEDTAVYYCARADGYEWYFDVWGRGTLVTVSS
VL: DIVLTQSPASLAVSPGQRATITCRASESVDSYGNSFMHWYQQKPGQPPKLLIYRASNLESGVPARFSGSGSRTDFTLTINPVEANDVANYYCQQSNEDPWTFGQGTKVEIK
B14: PR301557 (antibody, V domains shown)
VH: QVQLVQSGAEVKKPGASVKLSCKASGYSFTSYWVNWVRQAPGQGLEWIGMIHPSDSETRLNQKFKDRVTITVDKSTSTAYMELSSLRSEDTAVYYCARADGYEWYFDVWGRGTLVTVSS
VL: DIVLTQSPASLAVSPGQRATITCRASESVDSYGNSFMHWYQQKPGQPPKLLIYRASNLESGVPARFSGSGSRTDFTLTINPVEANDVANYYCQQSNEDPWTFGQGTKVEIK
B15: PR301442 (antibody, V domains shown)
VH: QVQLVQSGAEVKKPGASVKLSCKASGYSFTSYWVNWVRQAPGQGLEWIGMIHPSDSETRLNQKFKDRVTITVDKSTSTAYMELSSLRSEDTAVYYCARADGYEWYFDVWGRGTLVTVSS
VL: DIVLTQSPASLAVSPGQRATITCRASESVDSYGNSFMHWYQQKPGQPPKLLIYRASNLESGIPARFSGSGSGTDFTLTINPVEANDVANYYCQQSNEDPWTFGQGTKVEIK
B16: PR301556 (antibody, V domains shown)
VH: QVQLVQSGAEVKKPGASVKVSCKASGYSFTSYWVNWVRQAPGQGLEWMGMIHPSDSETRLNQKFKDRVTMTVDKSTSTAYMELSSLRSEDTAVYYCARADGYEWYFDVWGRGTLVTVSS
VL: DIVLTQSPASLAVSPGQRATITCRASESVDSYGNSFMHWYQQKPGQPPKLLIYRASNLESGIPARFSGSGSRTDFTLTINPVEANDVANYYCQQSNEDPWTFGQGTKVEIK
B17: PR301446 (antibody, V domains shown)
VH: QVQLVQSGAEVKKPGASVKISCKTSGYTFTEYTMYWVRQAPGQRLEWMGGINPNQGDTSYNQKFKGRATLTVDKSATTAYMELSSLRSEDTAVYYCARDGYPYYFAMDYWGQGTTVTVSS
VL: DIQMTQSPSSLSASVGDRVTITCKASQNVDTNVAWYQQKPGKAPKGLIYSASSRYSGVPSRFSGSGSGTDFTLTISSVQPEDLATYFCQQYNTYPWTFGQGTKVEIK

Each binder was assayed against T1, SARS-CoV-2(2019-nCoV)Spike Protein(S1 Subunit,His Tag) (SARS-CoV-2 (2019-nCoV), UniProt P0DTC2 16-685) (assay: not given).

Compared with B1, B2 is 150-fold higher in EC50: 0.0147 nM for the first, 2.22 nM for the second. The first is the more potent here.

First: B3
Second: B4
The EC50 of the first is 430-fold higher: 9.41 nM for the first, 0.022 nM for the second. The second is the more potent here.

Going from B5 to B6, the EC50 falls from 7.54 nM to 0.015 nM (500-fold).

B7 and B8 are within 1.5-fold of each other in EC50: 0.0149 nM for the first, 0.0143 nM for the second.

B9 and B10 are within 1.5-fold of each other in EC50: 0.0217 nM for the first, 0.0154 nM for the second.

Going from B11 to B12, the EC50 rises from 0.0204 nM to 0.0405 nM (2-fold).

Compared with B13, B14 is 2.8-fold higher in EC50: 0.0154 nM for the first, 0.0438 nM for the second.

B15 and B16 are within 1.5-fold of each other in EC50: 0.0294 nM for the first, 0.0272 nM for the second.

Each binder was assayed against T1, SARS-CoV-2(2019-nCoV)Spike Protein(S1 …) (assay: ELISA, S1-His coated, antibody titrated).

For B17, the EC50 was 0.00943 nM.
